Results reported in publication PMC6385126.

Tests used:
[1] = test system: His1 (position 1, -----HVD---); experiment: NMR; settings: 25 °C; none stated (0.1% DSS as shift standard); Non-deuterated peptide, 1 mM, free in solution
[2] = test system: His1 (position 1, -----HVD---); experiment: Raman; settings: 22 °C; not stated (no added salt apart from NaOH/HCl used for pH adjustment); none stated; C2-deuterated peptide H(C2-D)VD, about 10 mM, free in solution

Substance: HVD tripeptide (Ac-His-Val-Asp-NH2), N-terminal fragment of a hydrogel-forming semenogelin I peptide (synthetic; sequence derived from Homo sapiens semenogelin I)
- pKa [1]: 6.87 ± 0.03
- pKa [2]: 6.82
